Assay results as given in the RNAGym collection of RNA variant scans (doi:10.7554/elife.80360).

B1: CPEB3 Ribozyme (parent)
chain: GGGGGCCACAGCAGAAGCGUUCACGUCGCGGCCCCUGUCAGAUUCUGGUGAAUCUGCGAAUUCUGCUGU

Variants of: B1
Experiment: self-cleavage, relative activity (ratio to wild type); higher = more cleavage; co-transcriptional

Variant | self-cleavage
GGGGGCCACAGCAGAAGCGUUCACGUCGCGACCCCUGUCAUAUUCUGGUGAAUCUGCGAAUUCUGCUGU [G31A G41U] | 0.512
GGGGGCCACAGCAGAAGCGUUCACGUCGCGACCCCUGUCAGAUUCAGGUGAAUCUGCGAAUUCUGCUGU [G31A U46A] | 0.866
GGGGGCCACAGCAGAAGCGUUCACGUCGCGACCCGUGUCAGAUUCUGGUGAAUCUGCGAAUUCUGCUGU [G31A C35G] | 0.26
GGGGGCCACAGCAGAAGCGUUCACGUCGCGACCCCUGUCAGAUUCUGGUGAAUCUGCGAAUUCGGCUGU [G31A U64G] | 0.728
GGGGGCCACAGCAGAAGCGUUCACGUCGCGCCCCCUGUCAGAUUCUGGUGAAUCUGCGAGUUCUGCUGU [G31C A60G] | 0.226
GGGGGCCACAGCAGAAGCGUUCACGUCGCGCCCCCUGUCAGAUUCUGGUGAAUCUGCGACUUCUGCUGU [G31C A60C] | 0.21
GGGGGCCACAGCAGAAGCGUUCACGUCGCGCCCCCUGUCAGAUUCUGGUGAAUCUGCGAUUUCUGCUGU [G31C A60U] | 0.144
GGGGGCCACAGCAGAAGCGUUCACGUCGCGACCCCUGUCAGAUGCUGGUGAAUCUGCGAAUUCUGCUGU [G31A U44G] | 0.585
GGGGGCCACAGCAGAAGCGUUCACGUCGCGACCCCUGUCAGAUCCUGGUGAAUCUGCGAAUUCUGCUGU [G31A U44C] | 0.749
GGGGGCCACAGCAGAAGCGUUCACGUCGCGACCCCUGUCAGAUACUGGUGAAUCUGCGAAUUCUGCUGU [G31A U44A] | 0.808
GGGGGCCACAGCAGAAGCGUUCACGUCGCGACCCCUGUCAGAUUCUGGUCAAUCUGCGAAUUCUGCUGU [G31A G50C] | 0.84
GGGGGCCACAGCAGAAGCGUUCACGUCGCGACCCCUGUCAGAUUCUGGUAAAUCUGCGAAUUCUGCUGU [G31A G50A] | 0.95
GGGGGCCACAGCAGAAGCGUUCACGUCGCGACCCCUGUCAGAUUCUGGUUAAUCUGCGAAUUCUGCUGU [G31A G50U] | 0.889
GGGGGCCACAGCAGAAGCGUUCACGUCGCGACCCCUGCCAGAUUCUGGUGAAUCUGCGAAUUCUGCUGU [G31A U38C] | 0.762
GGGGGCCACAGCAGAAGCGUUCACGUCGCGACCCCUGUCAGAUUCUGGUGAAUGUGCGAAUUCUGCUGU [G31A C54G] | 0.436
GGGGGCCACAGCAGAAGCGUUCACGUCGCGACCCCUGUCAGAUUCUGGUGAAUUUGCGAAUUCUGCUGU [G31A C54U] | 0.793
GGGGGCCACAGCAGAAGCGUUCACGUCGCGACCCCUGUCAGAUUCUGGUGAAUAUGCGAAUUCUGCUGU [G31A C54A] | 0.489
GGGGGCCACAGCAGAAGCGUUCACGUCGCGACCACUGUCAGAUUCUGGUGAAUCUGCGAAUUCUGCUGU [G31A C34A] | 0.239
GGGGGCCACAGCAGAAGCGUUCACGUCGCGCACCCUGUCAGAUUCUGGUGAAUCUGCGAAUUCUGCUGU [G31C C32A] | 0.474
GGGGGCCACAGCAGAAGCGUUCACGUCGCGCUCCCUGUCAGAUUCUGGUGAAUCUGCGAAUUCUGCUGU [G31C C32U] | 0.235

Variant | self-cleavage
GGGGGCCACAGCAGAAGCGUUCACGUCGCGACCCCUGUCAGAUUUUGGUGAAUCUGCGAAUUCUGCUGU [G31A C45U] | 0.888
GGGGGCCACAGCAGAAGCGUUCACGUCGCGACCCCUGUCAGAUUGUGGUGAAUCUGCGAAUUCUGCUGU [G31A C45G] | 0.761
GGGGGCCACAGCAGAAGCGUUCACGUCGCGACCCCUGUCAGAUUAUGGUGAAUCUGCGAAUUCUGCUGU [G31A C45A] | 0.833
GGGGGCCACAGCAGAAGCGUUCACGUCGCGACCCCUGUCAGAUUCUGGUGAAUCUGCGAAUUUUGCUGU [G31A C63U] | 0.895
GGGGGCCACAGCAGAAGCGUUCACGUCGCGACCCCUGUCAGAUUCUGGUGAAUCUGCGAAUUGUGCUGU [G31A C63G] | 0.391
GGGGGCCACAGCAGAAGCGUUCACGUCGCGACCCCUGUGAGAUUCUGGUGAAUCUGCGAAUUCUGCUGU [G31A C39G] | 0.733
GGGGGCCACAGCAGAAGCGUUCACGUCGCGACCCCUGUUAGAUUCUGGUGAAUCUGCGAAUUCUGCUGU [G31A C39U] | 0.589
GGGGGCCACAGCAGAAGCGUUCACGUCGCGAACCCUGUCAGAUUCUGGUGAAUCUGCGAAUUCUGCUGU [G31A C32A] | 0.637
GGGGGCCACAGCAGAAGCGUUCACGUCGCGAUCCCUGUCAGAUUCUGGUGAAUCUGCGAAUUCUGCUGU [G31A C32U] | 0.534
GGGGGCCACAGCAGAAGCGUUCACGUCGCGACCCCUGUCAGAUUCUGGCGAAUCUGCGAAUUCUGCUGU [G31A U49C] | 0.938
GGGGGCCACAGCAGAAGCGUUCACGUCGCGACCCCUGUCAGAUUCUGGAGAAUCUGCGAAUUCUGCUGU [G31A U49A] | 0.886
GGGGGCCACAGCAGAAGCGUUCACGUCGCGACCCCUGUCAGAUUCUGGGGAAUCUGCGAAUUCUGCUGU [G31A U49G] | 0.812
GGGGGCCACAGCAGAAGCGUUCACGUCGCGACCCCUCUCAGAUUCUGGUGAAUCUGCGAAUUCUGCUGU [G31A G37C] | 0.231
GGGGGCCACAGCAGAAGCGUUCACGUCGCGACCCCUAUCAGAUUCUGGUGAAUCUGCGAAUUCUGCUGU [G31A G37A] | 0.193
GGGGGCCACAGCAGAAGCGUUCACGUCGCGACCCCUGUCAGAUUCUGGUGAAUCUGCGAGUUCUGCUGU [G31A A60G] | 0.475
GGGGGCCACAGCAGAAGCGUUCACGUCGCGACCCCUGUCAGAUUCUGGUGAAUCUGCGAAUUCUGCUGG [G31A U69G] | 1.02
GGGGGCCACAGCAGAAGCGUUCACGUCGCGACCCCUGUCAGAUUCUGGUGAAUCUGCGAAUCCUGCUGU [G31A U62C] | 0.406
GGGGGCCACAGCAGAAGCGUUCACGUCGCGACCCCUGUCAGAUUCUGGUGAAUCUGCGAAUGCUGCUGU [G31A U62G] | 0.434
GGGGGCCACAGCAGAAGCGUUCACGUCGCGACCCCUGUCAGAUUCUGGUGAAUCUGCGAAUACUGCUGU [G31A U62A] | 0.352
